Several values for one entry are separate records, joined by “and”; a condition that tells them apart may be missing. Equal entries are not always repeated.
Legend:
[1] = system: bone marrow progenitor cells; assay: CFU assay of bone marrow cells expanded in vitro with SCF and IL-6; format: cell-based, mouse; conditions: FIG. 9, mFLINT 1 ug/ml, 3 days with SCF and IL-6
Method: A—Bone marrow cells from irradiated mice—This experiment was designed to determine whether mFLINT could improve the recovery of murine hematopoietic progenitor cells from irradiation, by forcing in vitro expansion with hematopoietic cytokines. Mice were injected with 3 mg of 5-flouro-uracil, i.p., and four days later, femurs were removed and flushed to isolate bone marrow (BM) cells. 1×10^6 BM cells were seeded in each well of a 24 well tray in triplicate in Iscoves modified dulbeccos media (IMDM)+10% FBS and were stimulated for 3 days with the cytokines stem cell factor (SCF) and IL-6, in the presence or absence of mFLINT (1 ug/ml). After a 3-day in vitro expansion period, 5×10^3 cells were plated out in triplicate for the CFU assay.

[2] = system: Jurkat cells; assay: anti-CD3 induced Jurkat apoptosis (Annexin V/PI, FACS); format: cell-based; set-up: Cell apoptosis (Annexin V, FACS): unit not given here; conditions: for Cell apoptosis (positive staining with Annexin V): Example 12; for Cell apoptosis (Annexin V, FACS): Example 14
Method: Non-tissue treated 24 well plates (Decton Dickinson, Mansfield, Mass.) were coated with 0.5 ml of 1 ug/ml anti-CD3 (Farmingen) in PBS for 90 min at 37° C. The plate was washed once with PBS.
Cells were incubated overnight at 37° C. incubator and cells were then stained by Annexin V and PI staining. Apotosis was analyzed by flow cytometer (FACS). Cell apoptosis was indicated by positive staining with Annexin V.

[3] = target: T1, hFasLigand (Flag-tagged) (Homo sapiens, UniProt P48023); assay: ELISA: FasLigand binding to adsorbed FLINT and Fas; conditions: 100 ng receptor adsorbed
T1 sequence (P48023 103-281 limits assumed): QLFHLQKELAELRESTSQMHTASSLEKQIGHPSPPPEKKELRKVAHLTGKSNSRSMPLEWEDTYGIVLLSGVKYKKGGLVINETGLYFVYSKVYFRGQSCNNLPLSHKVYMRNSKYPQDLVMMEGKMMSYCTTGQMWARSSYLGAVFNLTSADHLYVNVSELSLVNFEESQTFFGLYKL
Method: FLINT and Fas (100 ng of each) were adsorbed on to an ELISA plate. hFasLigand (Flag-tagged) was added at different concentrations to a maximum concentration of 300 ng down to 0.1 ng on TBST plus a 0.1% solution containing 1 microgram/ml of M2 Abs. After washing of the plate, anti-mouse-Abs-HRP (1:3000 dilution, Bio-Rad) was added to the wells. After washings, visualization enzymatic reaction using ABTS as a substrate was performed.

[4] = target: T2, Fas-FasLigand interaction (Homo sapiens, UniProt P48023); assay: ELISA: FLINT prevents Fas-FasLigand interaction; format: binding; conditions: hFasLigand 30 ng, mrecFas 100 ng adsorbed
T2 sequence (P48023 103-281 limits assumed): T1 sequence (P48023 103-281 limits assumed)
Method: As above, mrecFas (100 ng) was adsorbed on to ELISA plate. Again the plate was blocked by TBST and 0.1% Gelatine. […] As before, after washing of the plate, anti-mouse-Abs-HRP (3000 dilution, Bio-Rad) was added to the wells. After washings, visualization enzymatic reaction using ABTS as a substrate was performed.

[5] = target: T3, FasL (Homo sapiens, UniProt P48023); assay: BiaCore real-time biomolecular interaction analysis (surface plasmon resonance); format: binding
T3 construct: purchased Kamiya Biomedical Company
T3 sequence (P48023 130-281 limits assumed): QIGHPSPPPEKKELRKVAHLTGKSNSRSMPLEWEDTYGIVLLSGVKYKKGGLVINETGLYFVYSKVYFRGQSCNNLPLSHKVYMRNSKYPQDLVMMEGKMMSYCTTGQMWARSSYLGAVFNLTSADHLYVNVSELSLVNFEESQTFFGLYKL
Description: FLINT-Fas L binding may be confirmed and specifics of binding determined (e.g., kinetics, specificity, affinity, cooperativity, relative binding pattern, concentration) using real-time biomolecular interaction analysis. This technology confers the ability to study biomolecular interactions in real time, without labeling any of the interactants. In particular, it takes advantage of the optical phenomenon surface plasmon resonance, and detection depends on changes in the mass concentration of macromolecules at the biospecific interface. Interactions are followed in real time, so that kinetic information is readily derived. In many cases, investigations can be performed without prior purification of components.
Measurements are accomplished using a BiaCore 2000 instrument. The instrument, accompanying chips, immobilization and maintenance kits and buffers are obtained from Biacore AB, Rapsgatan 7, S-754 50 Uppsala, Sweden. FasL is obtained from Kamiya Biomedical Company, 910 Industry Drive, Seattle, Wash. 98188, Guanidine Isothiocyanate Solution from GibcoBRL, and mFLINT is prepared as in Examples 8 and 9.
Experiments using immobilized FasL loaded with a solution containing mFLINT. […] This is explained by the fact that FasL is a trimer, yet here FasL monomer was bound. Further experiments utilized bound FLINT with FasL in solution, allowing for trimer formation. […] This observations indicate that FLINT should effectively compete with Fas for FasL binding, which likely explains the therapeutic benefit observed in experiments detailed below.

[6] = system: Jurkat cells; assay: Recombinant FasL induced Jurkat cell apoptosis (Annexin V/PI, FACS); format: cell-based; conditions: Jurkat + FasL 200 ng/ml + 1 ug test agent
Method: One milliliter of 1×10^6 cell/ml was added into each well of 24 well tissue culture plate and treated with following reagents: soluble Fas L (200 ng), Fas L plus 1 ug mFLINT, Fas L plus 1 ug OPG2-Fc, Trail (200 ng), Trail plus 1 ug mFLINT. Cells were incubated overnight at 37° C. and then stained with Annexin V and PI.

B1: mFLINT: mature FLINT without leader peptide (FIG. 3), soluble TNFR superfamily member, made according to Examples 8 and 9 (protein)
chain: VAETPTYPWRDAETGERLVCAQCPPGTFVQRPCRRDSPTTCGPCPPRHYTQFWNYLERCRYCNVLCGEREEEARACHATHNRACRCRTGFFAHAGFCLEHASCPPGAGVIAPGTPSQNTQCQPCPPGTFSASSSSSEQCQPHRNCTALGLALNVPGSSSHDTLCTSCTGFPLSTRVPGAEECERAVIDFVAFQDISIKRLQRLLQALEAPEGWGPTPRAGRAALQLKLRRRLTELLGAQDGALLVRLLQALRVARMPGLERSVRERFLPVH
modifications: glycosylated
- CFU-GEMM colonies ([1]; control 750, p<0.007): 3,000 colonies/3×10^6 stimulated BM cells
- CFU-GM colonies ([1]; control 8,000, p<0.039): 15,000 colonies/3×10^6 stimulated BM cells
- CFU-E colonies ([1]; control 15,000, p<0.003): 33,000 colonies/3×10^6 stimulated BM cells
- Cell apoptosis (positive staining with Annexin V) ([2]; Jurkat + antiCD3 + 1 ug test agent): 27.77
- Cell apoptosis (positive staining with Annexin V) ([2]; Jurkat + antiCD3 + 2 ug test agent): 18.67
- Cell apoptosis (Annexin V, FACS) ([2]; anti CD3 + 15.625 ng): 28.80
- Cell apoptosis (Annexin V, FACS) ([2]; anti CD3 + 31.25 ng): 28.21
- Cell apoptosis (Annexin V, FACS) ([2]; anti CD3 + 62.5 ng): 28.99
- Cell apoptosis (Annexin V, FACS) ([2]; anti CD3 + 125 ng): 29.4
- Cell apoptosis (Annexin V, FACS) ([2]; anti CD3 + 250 ng): 28.93
- Cell apoptosis (Annexin V, FACS) ([2]; anti CD3 + 500 ng): 27.48
- Cell apoptosis (Annexin V, FACS) ([2]; anti CD3 + 1000 ng): 24.29
- Cell apoptosis (Annexin V, FACS) ([2]; anti CD3 + 2000 ng): 17.02
- Cell apoptosis (Annexin V, FACS) ([2]; anti CD3 + 3000 ng): 14.68
- OD, 405 nM ([3]; FasL 0.1 ng): 0
- OD, 405 nM ([3]; FasL 0.5 ng): 0
- OD, 405 nM ([3]; FasL 1.0 ng): .02
- OD, 405 nM ([3]; FasL 5.0 ng): .04
- OD, 405 nM ([3]; FasL 10 ng): .12
- OD, 405 nM ([3]; FasL 50 ng): .28
- OD, 405 nM ([3]; FasL 100 ng): .78
- OD, 405 nM ([4]; FLINT 1 ng): 0.36
- OD, 405 nM ([4]; FLINT 5 ng): 0.36
- OD, 405 nM ([4]; FLINT 10 ng): 0.36
- OD, 405 nM ([4]; FLINT 50 ng): 0.28
- OD, 405 nM ([4]; FLINT 100 ng): 0.18
- OD, 405 nM ([4]; FLINT 500 ng): 0.06
- KD for FLINT-FasL relative to immobilized-FasL experiment ([5]; bound FLINT with FasL in solution, allowing trimer formation): 2 orders of magnitude better
- Kd ([5]; immobilized FasL (monomer bound), analyte in solution): 113 nM
- Cell apoptosis (Annexin V and PI, FACS) [6]: 3.32 and 4.6

Reference: patent US20040167074A1, “Therapeutic applications of mFLINT polypeptides” (priority 1998, published 2004)
